Among the data in patent US20220154170A1 are endpoint titer values, retold here.

The assay addresses clade B MN gp41 monomer (HIV-1 clade B, strain MN) (UniProt P05877). Kind of assay: endpoint ELISA, plate-coated MN gp41. On the technique in general: In an ELISA, binding on a coated surface is turned into a signal by an enzyme label.
Chain of UniProt P05877 (P05877 514-856 limits assumed): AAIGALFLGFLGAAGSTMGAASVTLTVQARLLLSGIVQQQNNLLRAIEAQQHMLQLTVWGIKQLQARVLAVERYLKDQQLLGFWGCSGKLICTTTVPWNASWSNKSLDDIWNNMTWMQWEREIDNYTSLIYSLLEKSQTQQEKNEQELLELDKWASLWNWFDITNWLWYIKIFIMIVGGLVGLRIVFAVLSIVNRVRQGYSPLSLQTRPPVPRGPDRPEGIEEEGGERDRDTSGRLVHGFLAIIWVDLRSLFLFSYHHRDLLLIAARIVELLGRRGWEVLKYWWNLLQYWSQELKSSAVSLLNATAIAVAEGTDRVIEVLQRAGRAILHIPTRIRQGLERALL

In turn, 240-D (antibody) gave an endpoint titer of 78.1 ng/mL.
